# Reference: patent US20110130348
# T1: LAP1 (rationally designed Lp1A acceptor peptide)
# T1 chain: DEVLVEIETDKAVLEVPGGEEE
# T2: synthetic LAP2 peptide (Lp1A acceptor peptide 2)
# T2 chain: GFEIDKVWYDLDA
# B1: Escherichia coli lipoic acid ligase (Lp1A) (protein)
# chain: MSTLRLLISDSYDPWFNLAVEECIFRQMPATQRVLFLWRNADTVVIGRAQNPWKECNTRRMEEDNVRLARRSSGGGAVFHDLGNTCFTFMAGKPEYDKTISTSIVLNALNALGVSAEASGRNDLVVKTVEGDRKVSGSAYRETKDRGFHHGTLLLNADLSRLANYLNPDKKKLAAKGITSVRSRVTNLTELLPGITHEQVCEAITEAFFAHYGERVEAEIISPNKTPDLPNFAETFARQSSWEWNFGQAPAFSHLLDERFTWGGVELHFDVEKGHITRAQVFTDSLNPAPLEALAGRLQGCLYRADMLQQECEALLVDFPEQEKELRELSAWMAGAVR
# Experiments:
# [1] = molecular target: HP1 with LAP2 fused to its C-terminus (LAP2-C)
# [2] = molecular target: LAP2-HP1 fusion protein (LAP2 at the N-terminus of HP1)
# [3] = molecular target: T1, LAP1 (rationally designed Lp1A acceptor …)
# [4] = molecular target: T2, synthetic LAP2 peptide (Lp1A acceptor …)
protein,measurement,setting,value
B1,"percent conversion to lipoylated product (HPLC, 50 nM Lp1A, 1 h)",[1],"When fused to the C- rather than N-terminus of HP1, the activity of LAP2 decreased somewhat, but was still higher than all other LAP sequences at the N-terminus"
same,"percent conversion to lipoylated product (HPLC, 50 nM Lp1A, 1 h)",[2],"As in the cellular assays, LAP2 is the best sequence"
same,Km (estimate from HPLC measurements),[3],the Km for LAP1 is estimated to be >200 µM
same,"Km of Lp1A-catalyzed lipoylation (HPLC, Michaelis-Menten)",[4],13.32 ± 1.78 µM
same,catalytic efficiency (kcat/Km) for lipoic acid ligation,[4],The catalytic efficiency (kcat/Km) 0.99 µM^-1 min^-1)
same,"kcat of Lp1A-catalyzed lipoylation (HPLC, Michaelis-Menten)",[4],0.22 ± 0.01 s⁻¹
